Changes are numbered by the printed parent chain. Names and notes keep the numbering of the source.

This is an account of results in patent US20120316071A1 (published 2012).

For experiment [1], the target named is T1, Recombinant Human DLL4 (R&D Systems Cat#1506-D4/CF) (human, UniProt Q9NR61 27-529).
T1 construct: Bought recombinant protein; also called rHuman DLL4; delta-like protein 4
The experiment is described as follows: MSD Multispot ECL, antigen spotted on plate, Fab 32.5 nM; blank spot 473.

For experiment [2], the target named is T2, rHuman HGF R/c-MET/Fc Chimera, CF (R&D Systems Cat#358-MT/CF) (human, UniProt P08581 25-932).
T2 construct: Bought reagent; also called HGF R/Fc; hepatocyte growth factor receptor; Fc part of the bought chimera not given
The description is as above.

Experiment [3] addresses T3, rHuman ErbB2/Fc Chimera, CF (R&D Systems Cat#1129-ER) (human, UniProt P04626 23-652).
T3 construct: Bought reagent; also called human epidermal growth factor 2 receptor; Fc part of the bought chimera not given
The experiment is described as above.

For experiment [4], the target named is T4, rHuman EGF R/Fc Chimera, CF (R&D Systems Cat#344-ER) (human, UniProt P00533 25-645).
T4 construct: Bought reagent; also called epidermal growth factor receptor; Fc part of the bought chimera not given
The description is as above.

In experiment [5] the target is T5, rHuman Notch-1/Fc Chimera, CF (R&D Systems Cat#3647-TK) (human, UniProt P46531 19-526).
T5 construct: Bought reagent; Fc part of the bought chimera not given
The experiment is described as above.

The target in experiment [6] is T6, rHuman Erythropoietin R/Fc Chimera, CF (R&D Systems Cat#963-ER) (human, UniProt P19235 25-250).
T6 construct: Bought reagent; also called EPO R/Fc; Epo R
T6 sequence (looked up): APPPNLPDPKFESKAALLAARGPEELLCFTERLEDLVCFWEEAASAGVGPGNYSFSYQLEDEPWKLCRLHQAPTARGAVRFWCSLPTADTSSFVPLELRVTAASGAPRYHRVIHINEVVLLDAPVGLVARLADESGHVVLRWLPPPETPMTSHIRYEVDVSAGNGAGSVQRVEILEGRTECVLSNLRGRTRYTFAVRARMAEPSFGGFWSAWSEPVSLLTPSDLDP
In words: MSD multispot ECL, antigen spotted, Fab 2383 nM; blank spot 344.

The target in experiment [7] is T7, rHuman HGF R/c-MET/Fc Chimera, CF (R&D Systems Cat#358-MT/CF) (human, UniProt P08581 25-932).
T7 construct: Bought reagent; also called HGF R/Fc; hepatocyte growth factor receptor
The description is as above.

Experiment [8] addresses T8, rHuman ErbB2/Fc Chimera, CF (R&D Systems Cat#1129-ER) (human, UniProt P04626 23-652).
T8 construct: Bought reagent; also called human epidermal growth factor 2 receptor
The experiment is described as above.

The target of experiment [9] is T9, rHuman CD44/Fc Chimera, CF (R&D Systems Cat#3660-CD) (human, UniProt P16070 21-220).
T9 construct: Bought reagent
The experiment is described as above.

In experiment [10] the target is T10, rHuman Notch-1/Fc Chimera, CF (R&D Systems Cat#3647-TK) (human, UniProt P46531 19-526).
T10 construct: Bought reagent
The experiment is described as above.

Experiment [11] addresses T11, Recombinant Human DLL4 (R&D Systems Cat#1506-D4/CF) (human, UniProt Q9NR61 27-524).
T11 construct: Bought recombinant protein; also called rHuman DLL4; delta-like protein 4
The description is as above.

In experiment [12] the target is T12, rHuman EGF R/Fc Chimera, CF (R&D Systems Cat#344-ER) (human, UniProt P00533 25-645).
T12 construct: Bought reagent; also called epidermal growth factor receptor
Described as above.

Experiment [13] has as its target T13, rHuman IGF-1 sR, (IGF-1 sR), CF (R&D Systems Cat#391-GR) (human, UniProt P08069 31-932).
T13 construct: Bought soluble receptor; also called insulin-like growth factor-1 soluble receptor
The experiment is described as above.

Experiment [14] has as its target T14, rHuman P-Cadherin/Fc Chimera, CF (R&D Systems Cat#861-PC) (human, UniProt P22223 108-654).
T14 construct: Bought recombinant protein; Fc part of the bought chimera not given
In words: ECL Multispot (MSD), antigen spotted; Fab 500 (µM); blank 439.

For experiment [15], the target named is T15, rHuman IGF-1 sR, CF (R&D Systems Cat#391-GR) (human, UniProt P08069 31-932).
T15 construct: Bought recombinant soluble receptor; also called insulin-like growth factor-1 soluble receptor
The description is as above.

For experiment [16], the target named is T16, rHuman ErbB2/Fc Chimera, CF (R&D Systems Cat#1129-ER) (human, UniProt P04626 23-652).
T16 construct: Bought recombinant protein; Fc part of the bought chimera not given
Described as above.

The target of experiment [17] is T17, rHuman HGF R/c-MET/Fc Chimera, CF (R&D Systems Cat#358-MT/CF) (human, UniProt P08581 25-932).
T17 construct: Bought recombinant protein; also called HGF R/Fc; Fc part of the bought chimera not given
The description is as above.

For experiment [18], the target named is T18, rHuman Erythropoietin R/Fc Chimera, CF (R&D Systems Cat#963-ER) (human, UniProt P19235 25-250).
T18 construct: Bought recombinant protein; also called EPO R; EPO R/Fc; Fc part of the bought chimera not given
T18 sequence (looked up): T6 sequence (looked up)
The experiment is described as above.

For experiment [19], the target named is T19, rHuman Notch-1/Fc Chimera, CF (R&D Systems Cat#3647-TK) (human, UniProt P46531 19-526).
T19 construct: Bought recombinant protein; Fc part of the bought chimera not given
Described as above.

B1: Fab VH1-8_IGHD2-2*01_IGHJ6*01 & L12_IGKJ1*01 (Fab, V domains shown)
VH: QVQLVQSGAEVKKPGASVKVSCKASGYTFTSYDINWVRQATGQGLEWMGWMNPNSGNTGYAQKFQGRVTMTRNTSISTAYMELSSLRSEDTAVYYCARGGYCSSTSCYADYYYYYGMDVWGQGTTVTVSS
VL: not shown
In the case of B1, the ECL signal was determined as 2990 in experiment [1]; 525 in experiment [2]; 556 in [3]; 645 in [4]; 706 in experiment [5].

B2: Fab VH1-46_IGHD6-6*01_IGHJ1*01 & L6_IGKJ1*01 (Fab, V domains shown)
VH: QVQLVQSGAEVKKPGASVKVSCKASGYTFTSYYMHWVRQAPGQGLEWMGIINPSGGSTSYAQKFQGRVTMTRDTSTSTVYMELSSLRSEDTAVYYCAREEYSSSSAEYFQHWGQGTLVTVSS
VL: not shown
notes: Only variable domains are tied to the molecule; Tested as a Fab made in E. coli: heavy chain from Plasmid A (CH1 constant region, His6 and Flag tags), kappa light chain from Plasmid C (kappa CL); also called parent Hit Fab against DLL4; VH1-46_IGHD6-6*01_IGHJ1*01 & L6_IGKJ1*01 (parental)
As to B2, the ECL signal was 658 ECL signal in experiment [6]; 762 ECL signal in experiment [7]; 454 ECL signal in experiment [8]; 559 ECL signal in experiment [9]; 690 ECL signal in experiment [10]; 11800 ECL signal in experiment [11]. Also, the figures for the ECL signal in experiment [12] and in experiment [13] were 621 ECL signal and 527 ECL signal, respectively.

B3: Fab VH1-46_IGHD6-6*01_IGHJ1*01 S102A/S103P/S104F (APF) & L6_IGKJ1*01 (Fab, V domains shown)
VH: B2 VH with S102A, S103P, S104F
VL: not shown
notes: Tested as a Fab made in E. coli: VH cloned in Plasmid A (CH1 constant region, His6 and Flag tags), VL in Plasmid C (kappa constant region); also called H:APF & L:wt; APF triple mutant
For B3, the ECL signal was 1010 in [14]; 613 in experiment [15]; 1580 in [16]; 760 in experiment [17]; 1210 in experiment [18]; 785 in experiment [19].
